These results are taken from paper PMC3294125.

What all share (assay): kinetics
One data set deals with Asp26 (UniProt position 26, FMSTNDKDIGV). As to conditions: Continuous catalytic turnover.
Another data set has as its target Cys139 (UniProt position 139, AFPRMCNLSYW). As to conditions: Continuous catalytic turnover; cited from earlier work.
For another data set, the target named is Asp139 (UniProt position 139, AFPRMDNLSYW). As to conditions: Continuous catalytic turnover; cited from earlier work.
In a further data set the target is Asp132 (UniProt position 132, HIGAPDMAFPR). As to conditions: Continuous catalytic turnover; cited from earlier work.

The term pKa denotes the negative logarithm of the acid dissociation constant. Regarding “Cytochrome c oxidase (aa3-type), subunit I H26D-D132A, subunit III-depleted (Rhodobacter sphaeroides; H26D;D132A)”, in the data set with Asp26, the pKa was 7.0 (6.9–7.1).
Regarding “Cytochrome c oxidase (aa3-type), subunit I N139C-D132N, subunit III-depleted (Rhodobacter sphaeroides; N139C;D132N)”, the pKa in the data set with Cys139 is given as 8.0 (7.9–8.1).
Turning to “Cytochrome c oxidase (aa3-type), subunit I N139D-D132N, subunit III-depleted (Rhodobacter sphaeroides; N139D;D132N)”, the pKa with Asp139 is recorded as 7.7 (7.5–7.9).
As to “Cytochrome c oxidase (aa3-type), subunit I, in subunit III-depleted enzyme [WT III (−)] (Rhodobacter sphaeroides)”, the pKa with Asp132 is recorded as 7.0–7.3.
